Data on 1 molecule can be found in PMC4625211, “Putative Breast Cancer Driver Mutations in TBX3 Cause Impaired Transcriptional Repression”.

In this series the target is T1, GST-TBX3(1-342) TBX3dm (human, UniProt O15119 1-342, G129A;R130S).
T1 sequence: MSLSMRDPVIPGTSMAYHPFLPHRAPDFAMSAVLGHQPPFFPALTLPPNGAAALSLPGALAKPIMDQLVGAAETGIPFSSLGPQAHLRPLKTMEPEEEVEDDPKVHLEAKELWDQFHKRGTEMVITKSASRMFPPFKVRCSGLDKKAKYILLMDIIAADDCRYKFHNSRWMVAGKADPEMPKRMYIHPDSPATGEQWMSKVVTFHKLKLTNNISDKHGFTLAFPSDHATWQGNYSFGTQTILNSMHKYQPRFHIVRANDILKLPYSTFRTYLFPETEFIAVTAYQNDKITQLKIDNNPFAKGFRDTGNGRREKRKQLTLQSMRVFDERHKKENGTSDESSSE
Briefly: EMSA; 20 mM HEPES (pH not given), 100 mM KCl, 1 mM DTT, 0.25 mM EDTA, 0.01% NP-40, 1 mM MgCl2, 8% glycerol, 100 ug/ml BSA, 1 mg/ml poly(dI-dC), 15 C, 1 h; 6% gel, 1x. As to conditions: protein: recombinant; tags: N-terminal GST (pGEX-2TK); label: 5' digoxigenin; blunt; self-complementary palindrome. (Mobility shift assays separate free from complexed probe on a gel.)

B1: palindromic Brachyury/T-box consensus oligonucleotide (24 bp) (dsDNA)
DNA 1: AATTTCACACCTAGGTGTGAAATT
DNA 2: AATTTCACACCTAGGTGTGAAATT
Take B1: the binding result is given as “no binding”.
